From paper PMC7688639 come the findings set out here.

The target in assay [1] is actin filaments (F-actin) polymerised from rabbit muscle actin (rabbit) (UniProt P68135). As to the kind of experiment: single-molecule TIRF binding kinetics (dwell times); dual colour with 10 nM Atto-488-cofilin and Alexa-555-utrn (0.05–0.1 nM), 450 ms per frame; events near (<30 nm) a cofilin binding event; only τ1 fitted.
The target is the same in assay [2]. As to the kind of experiment: single-molecule TIRF binding kinetics (dwell times); as a1, with 1 µM phalloidin added after the filaments had been tethered.
Assay [3] shares this target. Briefly: single-molecule TIRF binding kinetics (dwell times); actin filaments tethered to a PEG/biotin-PEG coverslip by streptavidin and biotin-phalloidin; labelled binding domain in solution at ~0.05–0.1 nM; 25 mM imidazole, 25 mM KCl, 4 mM MgCl2, 1 mM EGTA, 1 mM DTT, pH 7.4, 10 µg/mL beta casein; double exponential fit of the CDF, bleaching corrected.
Assay [4] has the same target. Briefly: single-molecule TIRF binding kinetics (dwell times); dual colour with 10 nM Atto-488-cofilin and Alexa-555-utrn (0.05–0.1 nM), 450 ms per frame; events far (>30 nm) from a cofilin binding event.
Assay [5] has the same target. As to the kind of experiment: single-molecule TIRF binding kinetics (dwell times); as a1, in the presence of 200 nM HMM.
Assay [6] shares this target. Briefly: single-molecule TIRF binding kinetics (dwell times); as a1, in the presence of 200 nM drebrin 1–300.
Assay [7] shares this target. Briefly: single-molecule TIRF binding kinetics (dwell times); as a1, with 1 µM jasplakinolide added after the filaments had been tethered.
Assay [8] has the same target. Briefly: single-molecule TIRF binding kinetics (dwell times); as a1, actin filaments co-polymerized with 5 µM biotin-phalloidin.
Assay [9] has the same target. Briefly: single-molecule TIRF binding kinetics (on-rate); tethered actin filaments; frequency of binding events for a range of concentrations of actin-binding domain, linear regression of frequency against concentration.

“utrophin actin-binding domain Δ-nterm Q33A T36A (domain or fragment)”: the dwell time τ1 (first timescale) was 0.57 s in [1]; 0.49 s in assay [2]; 0.42 s in [3]; 0.44 s in [4]; 0.4 s in [5]; 0.34 s in [6]. Moreover, the dwell time τ1 (first timescale) in assay [7] was determined as 0.47 s; in assay [8], 0.41 s. This substance also displayed an average dwell time (τav) in assay [3] of 0.8 s. Further, in [3], the ratio of the two dwell-time scales (τ2/τ1) came to 9.6. In assay [9], this substance gave an on-rate constant (kon) of 2.1e+06 M⁻¹ s⁻¹.
